B1: Q449stop (C-terminal deletion variant of ADAMTS-13, FLAG appended) (protein)
chain: PSHFQQSCLQALEPQAVSSYLSPGAPLKGRPPSPGFQRQRQRQRRAAGGILHLELLVAVGPDVFQAHQEDTERYVLTNLNIGAELLRDPSLGAQFRVHLVKMVILTEPEGAPNITANLTSSLLSVCGWSQTINPEDDTDPGHADLVLYITRFDLELPDGNRQVRGVTQLGGACSPTWSCLITEDTGFDLGVTIAHEIGHSFGLEHDGAPGSGCGPSGHVMASDGAAPRAGLAWSPCSRRQLLSLLSAGRARCVWDPPRPQPGSAGHPPDAQPGLYYSANEQCRVAFGPKAVACTFAREHLDMCQALSCHTDPLDQSSCSRLLVPLLDGTECGVEKWCSKGRCRSLVELTPIAAVHGRWSSWGPRSPCSRSCGGGVVTRRRQCNNPRPAFGGRACVGADLQAEMCNTQACEKTQLEFMSQQDYKDDDDK
B2: recombinant ADAMTS-13 (von Willebrand factor specific cleaving enzyme), expressed in human embryo kidney cell line 293 (protein)
chain: AAGGILHLELLVAVGPDVFQAHQEDTERYVLTNLNIGAELLRDPSLGAQFRVHLVKMVILTEPEGAPNITANLTSSLLSVCGWSQTINPEDDTDPGHADLVLYITRFDLELPDGNRQVRGVTQLGGACSPTWSCLITEDTGFDLGVTIAHEIGHSFGLEHDGAPGSGCGPSGHVMASDGAAPRAGLAWSPCSRRQLLSLLSAGRARCVWDPPRPQPGSAGHPPDAQPGLYYSANEQCRVAFGPKAVACTFAREHLDMCQALSCHTDPLDQSSCSRLLVPLLDGTECGVEKWCSKGRCRSLVELTPIAAVHGRWSSWGPRSPCSRSCGGGVVTRRRQCNNPRPAFGGRACVGADLQAEMCNTQACEKTQLEFMSQQCARTDGQPLRSSPGGASFYHWGAAVPHSQGDALCRHMCRAIGESFIMKRGDSFLDGTRCMPSGPREDGTLSLCVSGSCRTFGCDGRMDSQQVWDRCQVCGGDNSTCSPRKGSFTAGRAREYVTFLTVTPNLTSVYIANHRPLFTHLAVRIGGRYVVAGKMSISPNTTYPSLLEDGRVEYRVALTEDRLPRLEEIRIWGPLQEDADIQVYRRYGEEYGNLTRPDITFTYFQPKPRQAWVWAAVRGPCSVSCGAGLRWVNYSCLDQARKELVETVQCQGSQQPPAWPEACVLEPCPPYWAVGDFGPCSASCGGGLRERPVRCVEAQGSLLKTLPPARCRAGAQQPAVALETCNPQPCPARWEVSEPSSCTSAGGAGLALENETCVPGADGLEAPVTEGPGSVDEKLPAPEPCVGMSCPPGWGHLDATSAGEKAPSPWGSIRTGAQAAHVWTPAAGSCSVSCGRGLMELRFLCMDSALRVPVQEELCGLASKPGSRREVCQAVPCPARWQYKLAACSVSCGRGVVRRILYCARAHGEDDGEEILLDTQCQGLPRPEPQEACSLEPCPPRWKVMSLGPCSASCGLGTARRSVACVQLDQGQDVEVDEAACAALVRPEASVPCLIADCTYRWHVGTWMECSVSCGDGIQRRRDTCLGPQAQAPVPADFCQHLPKPVTVRGCWAGPCVGQGTPSLVPHEEAAAPGRTTATPAGASLEWSQARGLLFSPAPQPRRLLPGPQENSVQSSACGRQHLEPTGTIDMRGPGQADCAVAIGRPLGEVVTLRVLESSLNCSAGDMLLLWGRLTWRKMCRKLLDMTFSSKTNTLVVRQRCGRPGGGVLLRYGSQLAPETFYRECDMQLFGPWGEIVSPSLSPATSNAGGCRLFINVAPHARIAIHALATNMGAGTEGANASYILIRDTHSLRTTAFHGQQVLYWESESSQAEMEFSEGFLKAQASLRGQYWTLQSWVPEMQDPQSWKGKEGT
B3: W688stop (C-terminal deletion variant of ADAMTS-13, FLAG appended) (protein)
chain: PSHFQQSCLQALEPQAVSSYLSPGAPLKGRPPSPGFQRQRQRQRRAAGGILHLELLVAVGPDVFQAHQEDTERYVLTNLNIGAELLRDPSLGAQFRVHLVKMVILTEPEGAPNITANLTSSLLSVCGWSQTINPEDDTDPGHADLVLYITRFDLELPDGNRQVRGVTQLGGACSPTWSCLITEDTGFDLGVTIAHEIGHSFGLEHDGAPGSGCGPSGHVMASDGAAPRAGLAWSPCSRRQLLSLLSAGRARCVWDPPRPQPGSAGHPPDAQPGLYYSANEQCRVAFGPKAVACTFAREHLDMCQALSCHTDPLDQSSCSRLLVPLLDGTECGVEKWCSKGRCRSLVELTPIAAVHGRWSSWGPRSPCSRSCGGGVVTRRRQCNNPRPAFGGRACVGADLQAEMCNTQACEKTQLEFMSQQCARTDGQPLRSSPGGASFYHWGAAVPHSQGDALCRHMCRAIGESFIMKRGDSFLDGTRCMPSGPREDGTLSLCVSGSCRTFGCDGRMDSQQVWDRCQVCGGDNSTCSPRKGSFTAGRAREYVTFLTVTPNLTSVYIANHRPLFTHLAVRIGGRYVVAGKMSISPNTTYPSLLEDGRVEYRVALTEDRLPRLEEIRIWGPLQEDADIQVYRRYGEEYGNLTRPDITFTYFQPKPRQAWVWDYKDDDDK
B4: Full 1427stop (FLAG tagged ADAMTS-13 wild type) (protein)
chain: PSHFQQSCLQALEPQAVSSYLSPGAPLKGRPPSPGFQRQRQRQRRAAGGILHLELLVAVGPDVFQAHQEDTERYVLTNLNIGAELLRDPSLGAQFRVHLVKMVILTEPEGAPNITANLTSSLLSVCGWSQTINPEDDTDPGHADLVLYITRFDLELPDGNRQVRGVTQLGGACSPTWSCLITEDTGFDLGVTIAHEIGHSFGLEHDGAPGSGCGPSGHVMASDGAAPRAGLAWSPCSRRQLLSLLSAGRARCVWDPPRPQPGSAGHPPDAQPGLYYSANEQCRVAFGPKAVACTFAREHLDMCQALSCHTDPLDQSSCSRLLVPLLDGTECGVEKWCSKGRCRSLVELTPIAAVHGRWSSWGPRSPCSRSCGGGVVTRRRQCNNPRPAFGGRACVGADLQAEMCNTQACEKTQLEFMSQQCARTDGQPLRSSPGGASFYHWGAAVPHSQGDALCRHMCRAIGESFIMKRGDSFLDGTRCMPSGPREDGTLSLCVSGSCRTFGCDGRMDSQQVWDRCQVCGGDNSTCSPRKGSFTAGRAREYVTFLTVTPNLTSVYIANHRPLFTHLAVRIGGRYVVAGKMSISPNTTYPSLLEDGRVEYRVALTEDRLPRLEEIRIWGPLQEDADIQVYRRYGEEYGNLTRPDITFTYFQPKPRQAWVWAAVRGPCSVSCGAGLRWVNYSCLDQARKELVETVQCQGSQQPPAWPEACVLEPCPPYWAVGDFGPCSASCGGGLRERPVRCVEAQGSLLKTLPPARCRAGAQQPAVALETCNPQPCPARWEVSEPSSCTSAGGAGLALENETCVPGADGLEAPVTEGPGSVDEKLPAPEPCVGMSCPPGWGHLDATSAGEKAPSPWGSIRTGAQAAHVWTPAAGSCSVSCGRGLMELRFLCMDSALRVPVQEELCGLASKPGSRREVCQAVPCPARWQYKLAACSVSCGRGVVRRILYCARAHGEDDGEEILLDTQCQGLPRPEPQEACSLEPCPPRWKVMSLGPCSASCGLGTARRSVACVQLDQGQDVEVDEAACAALVRPEASVPCLIADCTYRWHVGTWMECSVSCGDGIQRRRDTCLGPQAQAPVPADFCQHLPKPVTVRGCWAGPCVGQGTPSLVPHEEAAAPGRTTATPAGASLEWSQARGLLFSPAPQPRRLLPGPQENSVQSSACGRQHLEPTGTIDMRGPGQADCAVAIGRPLGEVVTLRVLESSLNCSAGDMLLLWGRLTWRKMCRKLLDMTFSSKTNTLVVRQRCGRPGGGVLLRYGSQLAPETFYRECDMQLFGPWGEIVSPSLSPATSNAGGCRLFINVAPHARIAIHALATNMGAGTEGANASYILIRDTHSLRTTAFHGQQVLYWESESSQAEMEFSEGFLKAQASLRGQYWTLQSWVPEMQDPQSWKGKEGTDYKDDDDK

Molecular target: von Willebrand factor (vWF), prepared from plasma cryo fraction, P04275

Row | Protein | vWF cleaving activity | vWF cleaving activity (SDS-PAGE)
1 | B1 | secretion into culture supernatant was observed but the enzyme activity was weak or not observed in a molecule consisting of amino acids up to the vicinity of the 449th | –
2 | B2 | It was also confirmed that the vWF cleaving activity exists in the obtained purified fraction | –
3 | B3 | – | vWF cleaving activity was clearly recognized from the full-length molecule to W688stop molecule
4 | B4 | – | vWF cleaving activity was clearly recognized from the full-length molecule to W688stop molecule

Reference: patent US20060251655A1
